According to publication PMC4966575:

Biological target: scFv 10-94 P (murine)
Assay: SPR

KD1 (bivalent model): 7.5 nM
Substance: Protein L (PpL), free (from UniProt Q51918 1-992) (natural protein)
